Measured values taken from patent US20090136433A1.

Target: hair (human) (human)
Assay: binding test on 5 mg human hair; bound His-tagged protein detected with anti-polyhistidine peroxidase conjugate and TMB; buffer control A405 nm = 0.05

Comparison protein YaaD from B. subtilis with His tag (from UniProt P37527 1-294)
A405 nm (absorption at 405 nm) (absorption at 405 nm): 0.12
